In article PMC7655804:

Target: ferroportin from Philippine tarsier (Carlito syrichta / Tarsius syrichta) (Carlito syrichta (Tarsius syrichta, Philippine tarsier))

Row | initial rate of Co^2+ transport by TsFpn proteoliposomes with both hepcidin and 11F9 Fab on the external side | initial rate of Co^2+ transport by TsFpn proteoliposomes with hepcidin on both inside and outside of the liposomes | Substance
1 | 0.032 min⁻¹ | – | human hepcidin
2 | – | 0.043 min⁻¹ | human hepcidin (peptide)
